T1: PUF4 RNA-binding domain (Saccharomyces cerevisiae, UniProt P25339 537-888)
T1 sequence: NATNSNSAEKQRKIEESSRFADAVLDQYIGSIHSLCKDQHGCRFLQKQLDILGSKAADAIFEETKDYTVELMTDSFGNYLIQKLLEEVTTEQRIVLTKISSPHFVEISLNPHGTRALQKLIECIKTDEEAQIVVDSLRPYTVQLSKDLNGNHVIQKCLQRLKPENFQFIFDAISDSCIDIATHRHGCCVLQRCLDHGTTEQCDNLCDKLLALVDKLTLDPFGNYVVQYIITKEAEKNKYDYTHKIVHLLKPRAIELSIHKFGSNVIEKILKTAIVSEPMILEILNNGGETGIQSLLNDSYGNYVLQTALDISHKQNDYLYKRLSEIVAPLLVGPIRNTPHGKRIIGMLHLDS


Biological target: T1, PUF4 RNA-binding domain
Experiment: Mg; RNA-MaP; 20 mM Na-HEPES pH 7.4, 30 mM KOAc, 0.75 mM MgCl2, 0.1% Tween-20, 5% glycerol, 0.1 mg/mL BSA, 2 mM DTT; 25 C; 0.0125-409.6 nM protein
Details: tags: N-His6-TEV cleaved; C-SNAP kept, Cy3B-labelled; label: tethered on chip by stalled RNA polymerase

Binder	Kd
UCUCUUCGUAUCAUUAUCUCUU (ssRNA) [Ib_S1_P5E.1_K5.1_C5.1_H5.1_[T1C]_A5.1_[T6C]_F5.1_T5.1]	1380 nM
UCUCUUCGUACUAUUAUCUCUU (ssRNA) [Ib_S1_P5E.1_K5.1_C5.1_H5.1_[T1C]_A5.1_[T5C]_F5.1_T5.1]	592 nM
UCUCUUAGUACUAUUAUCUCUU (ssRNA) [Ib_S1_P5E.1_K5.1_C5.1_H5.1_[T1A]_A5.1_[T5C]_F5.1_T5.1]	1400 nM
Id_ii_S4_P3E.2_K3.1_C3.2_[C-2T]_H3.1_A3.1_F3.1_T3.2_[A10C] (ssRNA) RNA: UUUGACAACUGAUCGUUCUUUCUUUUGUAUAUAUCUUCUUUCUCGAUCAGUUGUCUUU	1.81 nM
Id_ii_S4_P3E.2_K3.1_C3.2_[T-1C]_H3.1_A3.1_F3.1_T3.2_[A10T] (ssRNA) RNA: UUUGACAACUGAUCGUUCUUUCUCCUGUAUAUAUUUUCUUUCUCGAUCAGUUGUCUUU	1.16 nM
Id_ii_S4_P3E.2_K3.1_C3.2_[C-2A]_H3.1_A3.1_F3.1_T3.2_[T9A]_[A10G] (ssRNA) RNA: UUUGACAACUGAUCGUUCUUUCUAUUGUAUAUAAGUUCUUUCUCGAUCAGUUGUCUUU	10.2 nM
Id_ii_S4_P3E.2_K3.1_C3.2_[T-1C]_H3.1_A3.1_F3.1_T3.2 (ssRNA) RNA: UUUGACAACUGAUCGUUCUUUCUCCUGUAUAUAUAUUCUUUCUCGAUCAGUUGUCUUU	0.873 nM
Id_ii_S4_P3E.3_K3.2_C3.2_[C-2G]_[T-1G]_H3.2_A3.1_F3.1_T3.2_[T9A]_[A10C] (ssRNA) RNA: UUUGACAACUGAUCGUUCUUUCUGGUAUAUAUAACUUCUUUCUCGAUCAGUUGUCUUU	2160 nM
Id_ii_S4_P3E.2_K3.1_C3.2_H3.1_A3.1_F3.1_T3.2_[T9A] (ssRNA) RNA: UUUGACAACUGAUCGUUCUUUCUCUUGUAUAUAAAUUCUUUCUCGAUCAGUUGUCUUU	3.34 nM
If_S4_P3E.2_K3.1_C3.2_H3.1_A3.1_F3.1_T3.2 (ssRNA) RNA: UUUGACAACUGAUCGUUCUUUCUCUUGUAUAUAUAUUCUUUCUCGAUCAGUUGUCUUU	0.951 nM
Id_ii_S4_P3E.2_K3.1_C3.2_[T-1C]_H3.1_A3.1_F3.1_T3.2_[T9C]_[A10G] (ssRNA) RNA: UUUGACAACUGAUCGUUCUUUCUCCUGUAUAUACGUUCUUUCUCGAUCAGUUGUCUUU	6.54 nM
Id_ii_S4_P3E.3_K3.2_C3.2_[C-2G]_[T-1G]_H3.2_A3.1_F3.1_T3.2_[A10T] (ssRNA) RNA: UUUGACAACUGAUCGUUCUUUCUGGUAUAUAUAUUUUCUUUCUCGAUCAGUUGUCUUU	234 nM
Id_ii_S4_P3E.2_K3.1_C3.2_[T-1A]_H3.1_A3.1_F3.1_T3.2_[T9A]_[A10C] (ssRNA) RNA: UUUGACAACUGAUCGUUCUUUCUCAUGUAUAUAACUUCUUUCUCGAUCAGUUGUCUUU	4.63 nM
Id_ii_S4_P3E.2_K3.1_C3.2_H3.1_A3.1_F3.1_T3.2_[T9G]_[A10T] (ssRNA) RNA: UUUGACAACUGAUCGUUCUUUCUCUUGUAUAUAGUUUCUUUCUCGAUCAGUUGUCUUU	3.88 nM
Id_ii_S4_P3E.2_K3.1_C3.2_[C-2A]_H3.1_A3.1_F3.1_T3.2_[A10T] (ssRNA) RNA: UUUGACAACUGAUCGUUCUUUCUAUUGUAUAUAUUUUCUUUCUCGAUCAGUUGUCUUU	2.72 nM
Id_ii_S4_P3E.2_K3.1_C3.2_[T-1A]_H3.1_A3.1_F3.1_T3.2 (ssRNA) RNA: UUUGACAACUGAUCGUUCUUUCUCAUGUAUAUAUAUUCUUUCUCGAUCAGUUGUCUUU	1.73 nM
Id_ii_S4_P3E.2_K3.1_C3.2_[C-2A]_[T-1C]_H3.1_A3.1_F3.1_T3.2_[A10T] (ssRNA) RNA: UUUGACAACUGAUCGUUCUUUCUACUGUAUAUAUUUUCUUUCUCGAUCAGUUGUCUUU	2.68 nM
Id_ii_S4_P3E.2_K3.1_C3.2_[C-2A]_[T-1G]_H3.1_A3.1_F3.1_T3.2_[T9A] (ssRNA) RNA: UUUGACAACUGAUCGUUCUUUCUAGUGUAUAUAAAUUCUUUCUCGAUCAGUUGUCUUU	10.8 nM
Id_ii_S4_P3E.2_K3.1_C3.2_[T-1C]_H3.1_A3.1_F3.1_T3.2_[A10G] (ssRNA) RNA: UUUGACAACUGAUCGUUCUUUCUCCUGUAUAUAUGUUCUUUCUCGAUCAGUUGUCUUU	1.76 nM
Id_ii_S4_P3E.2_K3.1_C3.2_[C-2A]_H3.1_A3.1_F3.1_T3.2_[A10G] (ssRNA) RNA: UUUGACAACUGAUCGUUCUUUCUAUUGUAUAUAUGUUCUUUCUCGAUCAGUUGUCUUU	10.6 nM
Id_ii_S4_P3E.2_K3.1_C3.2_[T-1C]_H3.1_A3.1_F3.1_T3.2_[T9C]_[A10C] (ssRNA) RNA: UUUGACAACUGAUCGUUCUUUCUCCUGUAUAUACCUUCUUUCUCGAUCAGUUGUCUUU	2.05 nM
Id_ii_S4_P3E.2_K3.1_C3.2_[T-1C]_H3.1_A3.1_F3.1_T3.2_[T9G]_[A10C] (ssRNA) RNA: UUUGACAACUGAUCGUUCUUUCUCCUGUAUAUAGCUUCUUUCUCGAUCAGUUGUCUUU	2 nM
Id_ii_S4_P3E.2_K3.1_C3.2_[T-1C]_H3.1_A3.1_F3.1_T3.2_[T9C]_[A10T] (ssRNA) RNA: UUUGACAACUGAUCGUUCUUUCUCCUGUAUAUACUUUCUUUCUCGAUCAGUUGUCUUU	1.47 nM
Id_ii_S4_P3E.2_K3.1_C3.2_[T-1C]_H3.1_A3.1_F3.1_T3.2_[T9G]_[A10T] (ssRNA) RNA: UUUGACAACUGAUCGUUCUUUCUCCUGUAUAUAGUUUCUUUCUCGAUCAGUUGUCUUU	1.77 nM

— publication PMC9352680, “A comprehensive thermodynamic model for RNA binding by the Saccharomyces cerevisiae Pumilio protein PUF4”
